Experimental data published in PMC9556597.

Target: AV-1980R recombinant protein (3xTau2-18-MultiTEP) (human) (UniProt P10636)
Assay: AUC; protein in 3.2 M urea

- stoichiometry N: 4
Substance: AV-1980R recombinant protein (3xTau2-18-MultiTEP) (from UniProt P10636 2-18; P10636 2-18; P10636 2-18)
